To fix the notation:
B1: 18182-G2 (scFv)
scFv: EVQLLESGGGLVQPGGSLRLSCAASGFTFSSHAMSWVRQAPGKGLEWVSAISGSGGGTYNADSVKGRFTISRDNSKNTLYLQMNSLRAEDTAAYYCVTGKGVHLGFDYWGQGTLVTVSSGGGGSGGGGSGGGGSELVLTQPPSVSVAPGQTARITCGGNNIGSKSVHWYQQKPGQAPVMVVYDDNDRPSGIPERFSGSNSGNTATLTISRVEAGDEADYYCQVWDSSSDHVIFGGGTKLTVL
notes: scFv in bacterial lysate, detected with anti-Flag M2
B2: 18182-H9 (scFv)
scFv: B1 scFv with N60Y, G66A, A93V, V97A, Y169H, M179L, Y219F, I232V
notes: as for B1
B3: 18182-H12 (scFv)
scFv: EVQLLESGGGLVQPGGSLRLSCAASGFTFSSYAMSWVRQAPGKGLEWVSTISGSGGGTYYADSVKGRFTISRDNSKNTLYLQMNSLRAEDTAVYYCATGKGVHLGFDYWGQGTLVTVSSGGGGSGGGGSGGGGSELMLTQPHSVSVAPGQTARITCGGNNIGSKSVHWYQQKPGQAPVLVVYDDNDRPSGIPERFSGSNFGNTATLIISRVEAGDEADYYCQVWDSSSDHVVFGGGTKLTVL
notes: as for B1
B4: 18182-G8 (scFv)
scFv: B1 scFv with Q13K, H32Y, S35N, N60Y, V64G, A93V, V97A, G105N, I232V
notes: as for B1
B5: 18182-G6 (scFv)
scFv: B1 scFv with H32Y, N60Y, Y169H, A176S, M179L, V181I, S198F, I232V
notes: as for B1
B6: 18081-E7 (scFv)
scFv: EVQLLESGPGLVKPSETLSLTCTVSGDSISSSRYYWGWIRQPPGKGLEWIGSIYYSGSTYYNPSLKSRVTISVDTSKNQFSLKLSSVTAADTAVYYCARGIFGVITYFDYWGQGTLVTVSSGGGGSGGGGSGGGGSELVMTQTPDSLAVSLGERATINCKSSQSVLYSSNNKNYLAWYQQKPGQPPKLLIYWASTRESGVPDRFSGSGSGTDFTLTISSLQAEDVAVYYCQQYYSTPLTFGGGTKVEIK
notes: as for B1
B7: 18081-B9 (scFv)
scFv: B6 scFv with T143S, Y233F, L238I, G242Q, K245R, V246L
notes: as for B1
B8: 18081-H11 (scFv)
scFv: EVQLLESGPALVKPTQTLTLTCTFSGFSFTTHKMGVDWIRQPPGKALEWLALIYWNDDKRYSPSLQSRLTITKDTSKNQVVLTMTNMDPVDTATYYCAYRRYNWNYENWFDPWGQGTLVTVSSGGGGSGGGGSGGGGSELQMTQSPSSLSASVGDRVTITCQASQDISNYLNWYQQKPGKAPKLLIYAASSLQSGVPSRFSGSGSGTDFTLTISSLQPEDFATYYCQQSYTTPFTFGPGTKVEIK
notes: as for B1
B9: 18089-C9 (scFv)
scFv: B8 scFv with A10T, Q162R, D166F, N169S, S203R, T231S
notes: as for B1
B10: 18089-D11 (scFv)
scFv: B8 scFv with A10V, S62N, Q141V, Q162R, D166S, L171F, T231I, P238G, V242L
notes: as for B1
B11: 18179-G12 (scFv)
scFv: EVQLLESGAEVKKPGASVKVSCKASGYTFTRNGLSWVRQAPGQGLEWMGWISGYNGDTNYAQKLQGRGTMTTDTSTSTAYMELRSLRSDDTAVYYCARGRATFDYWGQGTLVTVSSGGGGSGGGGSGGGGSELVMTQSPSSLSASVGDRVTITCRASQGISNYLAWYQQKPGKVPKLLISAASTLQSGVPSRFSGSGSGTDFTLTISSLQPEDVATYYCQKYNSAPFTFGPGTKLEIK
notes: as for B1
B12: 18179-C1 (scFv)
scFv: B11 scFv with L235V, E236D
notes: as for B1

Changes are numbered by the printed parent chain.

The first assay concerns the target T1, KEA peptide complexed with HLA-A*02:01 on T2 cells (human).
T1 construct: whole, on cells
As to the kind of experiment: flow cytometry, peptide-loaded T2 cells. (A flow cytometer gives signals particle by particle.)
Method: (§1) Binding of pMAGE-HLA scFv constructs, generated from the XenoMouse, on peptide loaded T2 cells was evaluated by flow cytometry.
The molecule B1 gave a Signal/background of 0.9.

The molecule B2 displayed a Signal/background of 1.

Molecule B3 came in with a Signal/background of 0.9.

With B4, the Signal/background turned out to be 0.9.

B5 registered a Signal/background of 1.

Molecule B6 gave a Signal/background of 1.

For the molecule B7, the Signal/background turned out to be 1.1.

Consider B8, for which the Signal/background was found to be 0.9.

For B9, the Signal/background was found to be 1.

In the case of B10, the Signal/background turned out to be 1.

Consider B11, for which the Signal/background was found to be 0.9.

As for B12, the Signal/background stood at 1.

A further assay addresses T2, CNDP2 peptide complexed with HLA-A*02:01 on T2 cells (human).
T2 construct: whole, on cells; also called CNPD2
As to the kind of experiment: flow cytometry, peptide-loaded T2 cells.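 Further: binding of single-chain Fv antibody constructs, raised in XenoMouse, to peptide-pulsed T2 cells measured by flow cytometry.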
Method: as §1
For B1, the Signal/background worked out at 1.

B2 registered a Signal/background of 1.

Regarding B3, the Signal/background was 1.

Molecule B4 displayed a Signal/background of 0.9.

As to B5, the Signal/background is 1.

On to B6, for which the Signal/background stood at 1.

B7: the Signal/background was determined as 1.

In turn, B8 had a Signal/background of 0.9.

As for B9, the Signal/background is 1.

As for B10, the Signal/background came to 1.

Molecule B11 yielded a Signal/background of 0.8.

Turning to B12, the Signal/background stood at 0.8.

Another assay deals with T3, MYOF peptide complexed with HLA-A*02:01 on T2 cells (human).
T3 construct: whole, on cells
Nature of the assay: flow cytometry, peptide-loaded T2 cells.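 Further: binding of single-chain Fv antibody constructs, raised in XenoMouse, to peptide-pulsed T2 cells measured by flow cytometry.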
Method: as §1
B1 registered a Signal/background of 1.

In turn, B2 had a Signal/background of 1.1.

B3 returned a Signal/background of 1.2.

Take B4: the Signal/background worked out at 1.

On to B5, for which the Signal/background worked out at 1.

On to B6, for which the Signal/background stood at 1.1.

In turn, B7 returned a Signal/background of 1.1.

Molecule B8 registered a Signal/background of 1.1.

As for B9, the Signal/background stood at 1.

For B10, the Signal/background worked out at 1.1.

As to B11, the Signal/background is 0.9.

Consider B12, for which the Signal/background is 0.9.

A further assay addresses T4, SLK peptide complexed with HLA-A*02:01 on T2 cells (human).
T4 construct: whole, on cells
As to the kind of experiment: flow cytometry, peptide-loaded T2 cells.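 Further: binding of single-chain Fv antibody constructs, raised in XenoMouse, to peptide-pulsed T2 cells measured by flow cytometry.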
Method: as §1
In the case of B1, the Signal/background is 1.

The molecule B2 showed a Signal/background of 1.2.

Molecule B3 showed a Signal/background of 1.

The molecule B4 had a Signal/background of 1.1.

Molecule B5 displayed a Signal/background of 1.

Consider B6, for which the Signal/background worked out at 1.4.

Turning to B7, the Signal/background stood at 1.1.

Turning to B8, the Signal/background was 1.1.

B9 gave a Signal/background of 1.1.

Regarding B10, the Signal/background worked out at 1.2.

Molecule B11 yielded a Signal/background of 1.1.

B12 yielded a Signal/background of 1.

A further assay concerns the target T5, ADF peptide complexed with HLA-A*02:01 on T2 cells (human).
T5 construct: whole, on cells
Nature of the assay: flow cytometry, peptide-loaded T2 cells.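 Further: binding of single-chain Fv antibody constructs, raised in XenoMouse, to peptide-pulsed T2 cells measured by flow cytometry.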
Method: as §1
As to B1, the Signal/background was 1.

Regarding B2, the Signal/background was 1.

As to B3, the Signal/background is 1.

B4: the Signal/background was 1.

Molecule B5 showed a Signal/background of 1.

B6: the Signal/background came to 1.

B7 yielded a Signal/background of 1.

Consider B8, for which the Signal/background stood at 0.9.

B9 yielded a Signal/background of 1.

As for B10, the Signal/background was 1.1.

Consider B11, for which the Signal/background is 1.1.

B12 registered a Signal/background of 1.3.

For the next assay, the target named is T6, STXBP5 peptide complexed with HLA-A*02:01 on T2 cells (human).
T6 construct: whole, on cells
Nature of the assay: flow cytometry, peptide-loaded T2 cells.
Method: as §1
Molecule B1 displayed a Signal/background of 0.9.

For B2, the Signal/background was determined as 1.1.

Regarding B3, the Signal/background came out at 1.

Molecule B4 yielded a Signal/background of 1.

Take B5: the Signal/background was found to be 1.

Consider B6, for which the Signal/background is 1.1.

Turning to B7, the Signal/background amounted to 1.

For B8, the Signal/background was 0.9.

The molecule B9 gave a Signal/background of 1.

With B10, the Signal/background turned out to be 1.1.

Turning to B11, the Signal/background worked out at 0.9.

For B12, the Signal/background stood at 0.9.

In another assay the target is T7, COX14 peptide complexed with HLA-A*02:01 on T2 cells (human).
T7 construct: whole, on cells
As to the kind of experiment: flow cytometry, peptide-loaded T2 cells.
Method: as §1
Turning to B1, the Signal/background came to 0.9.

Regarding B2, the Signal/background was 0.9.

Take B3: the Signal/background came out at 1.1.

As for B4, the Signal/background was 0.9.

Turning to B5, the Signal/background stood at 1.

For the molecule B6, the Signal/background came to 1.1.

For B7, the Signal/background amounted to 1.

The molecule B8 came in with a Signal/background of 1.

With B9, the Signal/background was 1.

For B10, the Signal/background came to 1.1.

B11 yielded a Signal/background of 1.2.

B12 yielded a Signal/background of 1.

The target of the next assay is T8, MAGEB2 peptide … (SEQ ID NO: 1) complexed with HLA-A*02:01 on the cell surface (human).
T8 construct: whole, on cells; also called pMAGE-HLA; MAGEB2 pMHC
Nature of the assay: flow cytometry, peptide-loaded T2 cells.
Method: as §1
Consider B1, for which the Signal/background amounted to 320.

In the case of B2, the Signal/background was determined as 481.

B3 gave a Signal/background of 298.

As to B4, the Signal/background was 289.

As for B5, the Signal/background is 365.

In turn, B6 displayed a Signal/background of 298.

As to B7, the Signal/background is 153.

Take B8: the Signal/background was 32.

In turn, B9 displayed a Signal/background of 39.

Consider B10, for which the Signal/background was found to be 78.

In the case of B11, the Signal/background was determined as 42.

The molecule B12 displayed a Signal/background of 43.

A further assay addresses T9, MB peptide complexed with HLA-A*02:01 on T2 cells (human).
T9 construct: whole, on cells
Nature of the assay: flow cytometry, peptide-loaded T2 cells.
Method: as §1
B1 returned a Signal/background of 1.

B2: the Signal/background worked out at 1.

Molecule B3 displayed a Signal/background of 1.2.

For B4, the Signal/background amounted to 1.1.

Turning to B5, the Signal/background is 1.

B6 returned a Signal/background of 1.

B7 had a Signal/background of 1.1.

The molecule B8 registered a Signal/background of 1.

For B9, the Signal/background was determined as 1.1.

B10 yielded a Signal/background of 1.2.

As for B11, the Signal/background worked out at 0.9.

In turn, B12 displayed a Signal/background of 1.

A further assay addresses T10, DPYSL4 peptide complexed with HLA-A*02:01 on T2 cells (human).
T10 construct: whole, on cells
Nature of the assay: flow cytometry, peptide-loaded T2 cells.
Method: as §1
In turn, B1 registered a Signal/background of 1.1.

As for B2, the Signal/background turned out to be 1.1.

B3 returned a Signal/background of 1.

On to B4, for which the Signal/background came to 1.

Regarding B5, the Signal/background was determined as 1.

Regarding B6, the Signal/background turned out to be 1.2.

Turning to B7, the Signal/background is 1.1.

The molecule B8 returned a Signal/background of 1.

As to B9, the Signal/background stood at 0.9.

B10 showed a Signal/background of 1.1.

For the molecule B11, the Signal/background turned out to be 1.1.

Molecule B12 gave a Signal/background of 1.

The record behind these values is patent publication US20220017636A1 (Amgen, published 2022).
